Experimental data reported in publication PMC9584350.

Molecular target: Arf6 (co-precipitated with FLAG–AMPKα2 from cells), P62330
Experiment: co-immunoprecipitation (IP anti-FLAG, immunoblot for Arf6), band quantification
Details: chain shown with the change; HEK 293T cells transfected with FLAG-AMPKα2 and Arf6-myc; n=4; empty (no FLAG-AMPKα2) control = 1; parent: est. 6.0; read off a plot

Arf6 (co-precipitated with FLAG–AMPKα2 from cells), P62330, sequence (P62330 whole entry): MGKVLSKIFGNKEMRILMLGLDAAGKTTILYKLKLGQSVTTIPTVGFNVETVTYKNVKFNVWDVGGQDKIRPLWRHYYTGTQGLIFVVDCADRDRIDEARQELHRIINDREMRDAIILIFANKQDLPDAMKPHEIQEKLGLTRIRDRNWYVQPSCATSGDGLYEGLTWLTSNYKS

response	Binder
1.4	FLAG–AMPKα2-WT, P54646 W402A; H403A; L404A; G405A; I406A (protein) MAEKQKHDGRVKIGHYVLGDTLGVGTFGKVKIGEHQLTGHKVAVKILNRQKIRSLDVVGKIKREIQNLKLFRHPHIIKLYQVISTPTDFFMVMEYVSGGELFDYICKHGRVEEMEARRLFQQILSAVDYCHRHMVVHRDLKPENVLLDAHMNAKIADFGLSNMMSDGEFLRTSCGSPNYAAPEVISGRLYAGPEVDIWSCGVILYALLCGTLPFDDEHVPTLFKKIRGGVFYIPEYLNRSVATLLMHMLQVDPLKRATIKDIREHEWFKQDLPSYLFPEDPSYDANVIDDEAVKEVCEKFECTESEVMNSLYSGDPQDQLAVAYHLIIDNRRIMNQASEFYLASSPPSGSFMDDSAMHIPPGLKPHPERMPPLIADSPKARCPLDALNTTKPKSLAVKKAKAAAAARSQSKPYDIMAEVYRAMKQLDFEWKVVNAYHLRVRRKNPVTGNYVKMSLQLYLVDNRSYLLDFKSIDDEVVEQRSGSSTPQRSCSAAGLHRPRSSFDSTTAESHSLSGSLTGSLTGSTLSSVSPRLGSHTMDFFEMCASLITTLAR
1.3	FLAG–AMPKα2-WT, P54646 E418A; V419A; Y420A; R421A (protein) MAEKQKHDGRVKIGHYVLGDTLGVGTFGKVKIGEHQLTGHKVAVKILNRQKIRSLDVVGKIKREIQNLKLFRHPHIIKLYQVISTPTDFFMVMEYVSGGELFDYICKHGRVEEMEARRLFQQILSAVDYCHRHMVVHRDLKPENVLLDAHMNAKIADFGLSNMMSDGEFLRTSCGSPNYAAPEVISGRLYAGPEVDIWSCGVILYALLCGTLPFDDEHVPTLFKKIRGGVFYIPEYLNRSVATLLMHMLQVDPLKRATIKDIREHEWFKQDLPSYLFPEDPSYDANVIDDEAVKEVCEKFECTESEVMNSLYSGDPQDQLAVAYHLIIDNRRIMNQASEFYLASSPPSGSFMDDSAMHIPPGLKPHPERMPPLIADSPKARCPLDALNTTKPKSLAVKKAKWHLGIRSQSKPYDIMAAAAAAMKQLDFEWKVVNAYHLRVRRKNPVTGNYVKMSLQLYLVDNRSYLLDFKSIDDEVVEQRSGSSTPQRSCSAAGLHRPRSSFDSTTAESHSLSGSLTGSLTGSTLSSVSPRLGSHTMDFFEMCASLITTLAR
